Reference: US20110082421A1

Legend:
[1] = biological target: AGE-modified bovine serum albumin (AGE-BSA), prepared by incubating BSA in 1.67 M glucose for two months (bovine) (UniProt P02769); test: FIG. 1D RET series, after 6 processing cycles
[2] = biological target: AGE-modified bovine serum albumin (AGE-BSA), prepared by incubating BSA in 1.67 M glucose for two months (bovine) (UniProt P02769); test: FIG. 1D RE series, after processing cycles
[3] = biological target: AGE-modified bovine serum albumin (AGE-BSA), prepared by incubating BSA in 1.67 M glucose for two months (bovine) (UniProt P02769); test: FIG. 1D initial capacity of the RET series; batch adsorption, competitive ELISA
[4] = biological target: AGE-modified bovine serum albumin (AGE-BSA), prepared by incubating BSA in 1.67 M glucose for two months (bovine) (UniProt P02769); test: FIG. 1A thermal stability, final capacity (4 h at 37 C); batch adsorption, competitive ELISA
[5] = biological target: AGE-modified bovine serum albumin (AGE-BSA), prepared by incubating BSA in 1.67 M glucose for two months (bovine) (UniProt P02769); test: FIG. 1C final capacity after 34 days in 20% ethanol at 4 C; batch adsorption, competitive ELISA
[6] = biological target: AGE-modified bovine serum albumin (AGE-BSA), prepared by incubating BSA in 1.67 M glucose for two months (bovine) (UniProt P02769); test: FIG. 1D final capacity after 6 cycles of regeneration, ethanol storage and 4 h at 37 C (RET); batch adsorption, competitive ELISA
[7] = biological target: AGE-modified bovine serum albumin (AGE-BSA), prepared by incubating BSA in 1.67 M glucose for two months (bovine) (UniProt P02769); test: FIG. 1D initial capacity of the RE series; batch adsorption, competitive ELISA
[8] = biological target: AGE-modified bovine serum albumin (AGE-BSA), prepared by incubating BSA in 1.67 M glucose for two months (bovine) (UniProt P02769); test: FIG. 1C initial capacity before storage in 20% ethanol; batch adsorption, competitive ELISA
[9] = biological target: AGE-modified bovine serum albumin (AGE-BSA), prepared by incubating BSA in 1.67 M glucose for two months (bovine) (UniProt P02769); test: FIG. 1A thermal stability, initial capacity (1 h at 37 C); batch adsorption, competitive ELISA
[10] = biological target: AGE-modified bovine serum albumin (AGE-BSA), prepared by incubating BSA in 1.67 M glucose for two months (bovine) (UniProt P02769); test: FIG. 1D final capacity after cycles of regeneration and ethanol storage (RE), 1 h at 37 C; batch adsorption, competitive ELISA

AGE-modified bovine serum albumin (AGE-BSA), prepared by incubating BSA in 1.67 M glucose for two months (bovine), sequence (P02769 25-607 limits assumed): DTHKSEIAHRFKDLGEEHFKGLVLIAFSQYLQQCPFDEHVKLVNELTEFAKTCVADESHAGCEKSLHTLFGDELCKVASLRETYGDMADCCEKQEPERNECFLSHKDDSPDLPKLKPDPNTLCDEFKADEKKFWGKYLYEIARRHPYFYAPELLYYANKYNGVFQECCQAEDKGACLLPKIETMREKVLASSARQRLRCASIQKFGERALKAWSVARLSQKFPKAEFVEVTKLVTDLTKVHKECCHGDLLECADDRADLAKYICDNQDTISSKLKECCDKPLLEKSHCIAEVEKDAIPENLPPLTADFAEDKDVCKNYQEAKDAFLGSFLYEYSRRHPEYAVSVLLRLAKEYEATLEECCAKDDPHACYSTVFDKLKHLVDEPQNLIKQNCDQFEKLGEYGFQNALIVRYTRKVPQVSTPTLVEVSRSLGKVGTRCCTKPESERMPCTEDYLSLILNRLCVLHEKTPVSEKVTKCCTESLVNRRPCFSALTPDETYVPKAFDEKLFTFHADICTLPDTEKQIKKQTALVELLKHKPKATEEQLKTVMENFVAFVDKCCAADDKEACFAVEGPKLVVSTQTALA

Which decrease of binding capacity against the initial binding capacity [1] does the source give for “RAGE-His construct (extracellular region of human RAGE, amino acid residues 23 through 340, with C-terminal six-histidine tag), immobilized on agarose (from UniProt Q15109 23-340) (receptor)” here?
The decrease of binding capacity against the initial binding capacity was 16%.

And the decrease of binding capacity against the initial value [2]?
The decrease of binding capacity against the initial value was 10%.

And the binding capacity (mg AGE-BSA/ml RAGE gel) [3]?
The binding capacity (mg AGE-BSA/ml RAGE gel) was 0.94.

And the binding capacity (mg AGE-BSA/ml RAGE gel) [4]?
Its binding capacity (mg AGE-BSA/ml RAGE gel) is 0.94.

And the binding capacity (mg AGE-BSA/ml RAGE gel) [5]?
Its binding capacity (mg AGE-BSA/ml RAGE gel) is 0.57.

What about the binding capacity (mg AGE-BSA/ml RAGE gel) [6] of the same substance?
Its binding capacity (mg AGE-BSA/ml RAGE gel) is 0.79.

And the binding capacity (mg AGE-BSA/ml RAGE gel) [7]?
The binding capacity (mg AGE-BSA/ml RAGE gel) was 0.92.

What about the binding capacity (mg AGE-BSA/ml RAGE gel) [8] of the same substance?
The binding capacity (mg AGE-BSA/ml RAGE gel) was 0.6.

What about the binding capacity (mg AGE-BSA/ml RAGE gel) [9] of the same substance?
Its binding capacity (mg AGE-BSA/ml RAGE gel) is 0.92.

What about the binding capacity (mg AGE-BSA/ml RAGE gel) [10] of the same substance?
The binding capacity (mg AGE-BSA/ml RAGE gel) was 0.82.
